Experimental data taken from publication PMC2156157 (The Journal of Cell Biology, 1999).
Ends that are not written are not given here. * marks the point of attachment. Biotin = O=C1N[C@H]2[C@H](CS[C@H]2CCCCC(=O)*)N1

Target: T1, GST-EBP50 (ERM-binding phosphoprotein 50 kD) (human, UniProt O14745 1-358)
T1 sequence (looked up): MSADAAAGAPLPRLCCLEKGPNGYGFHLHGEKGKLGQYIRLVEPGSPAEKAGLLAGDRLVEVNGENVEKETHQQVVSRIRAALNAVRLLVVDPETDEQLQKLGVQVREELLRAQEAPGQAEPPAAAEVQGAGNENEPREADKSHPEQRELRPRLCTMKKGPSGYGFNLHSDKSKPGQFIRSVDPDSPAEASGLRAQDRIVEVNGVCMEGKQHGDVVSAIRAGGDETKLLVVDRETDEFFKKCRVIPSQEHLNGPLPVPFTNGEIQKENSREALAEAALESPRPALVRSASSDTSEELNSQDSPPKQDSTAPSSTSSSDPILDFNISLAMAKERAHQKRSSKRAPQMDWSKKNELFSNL
Test: pull-down

- binding result: binds
B1: CFTRwt peptide (COOH-terminal 10 amino acids of human CFTR) (peptide)
peptide: Biotin-SGSGTEEEVQDTRL
